Test [1] addresses T1, human LTβR on A375 cells (human, UniProt P36941 31-435). Briefly: cell-based or functional assay.
Test [2] addresses T1, human LTβR on A375 cells. Nature of the test: flow cytometry on A375 cells, serial dilution from 500 nM, anti-human IgG detection. Here is the method:
(§1) Specifically, the A375 cell line was prepared by suspending in a FACS buffer solution at 1×10⁵ cells/100 μL, and treated with 100 μL each of T3.01, T3.07, T3.04, and T3.18 prepared by suspending at 500 nM and diluting by serial dilution. The cells were washed twice with a FACS buffer solution. The cells were stained with an anti-human IgG antibody (Biolegend). The expression ratio of the stained cells was measured using BD LSR and analyzed using FlowJo software.
(In general: In flow cytometry, cells or beads pass a laser one at a time.)

A further test addresses T2, recombinant human FAP (human, UniProt Q12884 26-760).
T2 construct: also called rhFAP
T2 sequence (looked up): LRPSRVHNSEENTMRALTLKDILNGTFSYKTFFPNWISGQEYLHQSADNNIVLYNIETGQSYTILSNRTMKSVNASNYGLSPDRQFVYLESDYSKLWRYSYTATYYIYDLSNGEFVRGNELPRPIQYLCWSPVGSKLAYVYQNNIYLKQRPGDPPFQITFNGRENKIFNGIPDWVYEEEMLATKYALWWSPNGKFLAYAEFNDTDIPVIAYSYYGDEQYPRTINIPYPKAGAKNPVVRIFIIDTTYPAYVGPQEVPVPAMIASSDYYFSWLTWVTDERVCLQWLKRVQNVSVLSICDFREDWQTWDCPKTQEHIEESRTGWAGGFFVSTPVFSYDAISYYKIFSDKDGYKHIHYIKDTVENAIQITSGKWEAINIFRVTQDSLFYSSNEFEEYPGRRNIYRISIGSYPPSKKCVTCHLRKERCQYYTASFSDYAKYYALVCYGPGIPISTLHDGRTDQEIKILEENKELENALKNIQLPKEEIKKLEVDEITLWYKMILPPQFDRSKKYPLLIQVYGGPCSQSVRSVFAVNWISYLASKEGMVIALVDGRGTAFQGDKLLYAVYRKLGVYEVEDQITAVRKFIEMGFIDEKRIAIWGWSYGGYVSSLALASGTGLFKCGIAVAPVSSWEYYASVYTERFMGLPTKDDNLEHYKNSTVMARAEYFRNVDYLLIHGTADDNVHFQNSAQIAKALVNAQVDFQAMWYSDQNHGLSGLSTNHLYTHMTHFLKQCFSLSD
Briefly: SPR, fusion protein captured by anti-human IgG (Fc) on CM5, recombinant human FAP as analyte, 1:1 binding model. Here is the method:
Specifically, the surface of the CM5 chip was activated with a 1:1 mixture of […] NHS (N-hydroxysuccinimide) and 200 nM EDC (1-ethyl-3-(3-dimethylaminopropyl)carbodiimide), and 20 μg/mL of anti-human IgG (Fc) antibody was immobilized for 400 seconds at a rate of 10 μL/min. The remaining active ester groups were blocked with 1 M ethanolamine. T3.01, T3.07, and T3.14 were diluted to 2 μg/mL, 1 μg/mL, and 2 μg/mL, respectively, and reacted on the CM5 chip immobilized with the anti-human IgG (Fc) antibody. The recombinant human FAP was diluted to 50 nM or 100 nM in 1×HBS-EP+buffer solution and diluted by serial dilution. The diluted recombinant human FAP was reacted at a rate of 30 μL/min. The association and dissociation times were 180 seconds and 400 seconds, respectively. After the dissociation step, stabilization was performed for 60 seconds, and then the regeneration step was performed for 30 seconds with a 10 mM glycine pH 1.5 solution at a rate of 30 μL/min.

Test [3] addresses T3, recombinant human lymphotoxin beta receptor (LTβR) (human, UniProt P36941 28-227, limits assumed).
T3 construct: neither construct is described; also called human LTβR; recombinant human LTβR protein
Briefly: SPR, human LTβR immobilised on CM5, fusion protein as analyte, 1:1 binding model. The protocol:
Specifically, the surface of the CM5 chip was activated with a 1:1 mixture of […], and 5 μg/mL of human LTβR was immobilized for 60 seconds at a rate of 10 μL/min. The remaining active ester groups were blocked with 1 M ethanolamine. […] The diluted fusion proteins were reacted at a rate of 30 μL/min. The association and dissociation times were 180 seconds and 400 seconds, respectively. After the dissociation step, stabilization was performed for 60 seconds, and then the regeneration step was performed for 30 seconds with a 10 mM glycine pH 1.5 solution at a rate of 30 μL/min.

Test [4] concerns the target T4, recombinant human herpes virus entry mediator (HVEM) (human, UniProt Q92956 39-202).
T4 construct: neither construct is described; also called human HVEM; recombinant human HVEM protein (R&D systems)
T4 sequence (looked up): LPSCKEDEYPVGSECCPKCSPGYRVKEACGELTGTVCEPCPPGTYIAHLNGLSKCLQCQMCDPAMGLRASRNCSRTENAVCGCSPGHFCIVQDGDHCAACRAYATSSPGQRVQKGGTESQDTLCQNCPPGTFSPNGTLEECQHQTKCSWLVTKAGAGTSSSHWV
Nature of the test: SPR, human HVEM immobilised on CM5, fusion protein as analyte, 1:1 binding model. The protocol: (§2) Specifically, the surface of the CM5 chip was activated with a 1:1 mixture of […], and 5 to 6 μg/mL of human HVEM was immobilized for 60 seconds at a rate of 10 μL/min. The remaining active ester groups were blocked with 1 M ethanolamine. T3.01, T3.07, T3.09, T3.14, and T3.18 were each diluted to 100 nM in 1×HBS-EP+buffer solution and diluted by serial dilution. The diluted fusion proteins were reacted at a rate of 30 μL/min. The association and dissociation times were 180 seconds and 400 seconds, respectively. After the dissociation step, stabilization was performed for 60 seconds, and then the regeneration step was performed for 30 seconds with a 10 mM glycine pH 1.5 solution at a rate of 30 μL/min.
On the technique in general: SPR reads the build-up and loss of mass on a sensor chip optically.

The next test concerns the target T5, human DcR3 (human, UniProt O95407 30-300).
T5 construct: also called LIGHT receptor DcR3
T5 sequence (looked up): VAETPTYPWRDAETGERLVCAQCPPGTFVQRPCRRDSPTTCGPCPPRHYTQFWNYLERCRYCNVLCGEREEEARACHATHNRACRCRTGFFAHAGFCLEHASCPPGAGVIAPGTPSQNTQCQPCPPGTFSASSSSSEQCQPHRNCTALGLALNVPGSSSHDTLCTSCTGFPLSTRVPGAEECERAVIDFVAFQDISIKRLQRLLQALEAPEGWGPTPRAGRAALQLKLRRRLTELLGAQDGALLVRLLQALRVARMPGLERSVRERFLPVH
Briefly: SPR, human DcR3 immobilised on CM5, fusion protein as analyte, 1:1 binding model. The protocol: as §2, with “DcR3” for “HVEM”, “50 nM or 200” for “100”

For test [5], the target named is T1, human LTβR on A375 cells. Briefly: flow cytometry on A375 cells, serial dilutions, anti-human IgG detection, MFI against TMEkine [nM]. Here is the method: as §1
In test [6] the target is T4, recombinant human herpes virus entry …. Nature of the test: sandwich ELISA: plate coated with recombinant human HVEM 1 ug/mL, fusion protein from 1 nM in serial dilution, detected with biotinylated recombinant human FAP and streptavidin conjugate, OD 450 nm. Here is the method: Considering that LIGHT of the fusion protein must bind to the herpes virus entry mediator (HVEM) for the action, it was confirmed that T3.01 binds to the recombinant human HVEM, as follows: [0370] (i) The recombinant human HVEM protein (R&D systems) was suspended at 1 μg/mL, dispensed in a 96-well immune plate, and treated for 24 hours. [0371] (ii) The wells were washed with a wash solution, and then blocking was performed for 1 hour with 1% BSA (bovine serum albumin, Sigma) solution. [0372] (iii) The wells were washed with a wash solution, and then T3.01, T3.14, T3.16, T3.17, T3.18 and T3.10, or T3.05, T3.06, T3.04, T3.14 and T3.10 were suspended at 1 nM and diluted by serial dilution. The wells were treated with the diluted T3.01, T3.14, T3.16, T3.17, T3.18 and T3.10, or T3.05, T3.06, T3.04, T3.14 and T3.10 for 2 hours. [0373] (iv) The wells were washed with a wash solution, and then treated with the human recombinant FAP-biotin diluted at 0.5 μg/mL for 2 hours. [0374] (v) The wells were washed with a wash solution, and then treated with streptavidin-RP for 20 minutes. [0375] (vi) The wells were washed with a wash solution, and then treated with a substrate solution for 20 minutes. [0376] (vii) The wells were treated with a stop solution, and the absorbance was measured at 450 nm.
In general terms: An ELISA detects its analyte on a solid surface through an enzyme-linked reagent.

T1 sequence (P36941 31-435): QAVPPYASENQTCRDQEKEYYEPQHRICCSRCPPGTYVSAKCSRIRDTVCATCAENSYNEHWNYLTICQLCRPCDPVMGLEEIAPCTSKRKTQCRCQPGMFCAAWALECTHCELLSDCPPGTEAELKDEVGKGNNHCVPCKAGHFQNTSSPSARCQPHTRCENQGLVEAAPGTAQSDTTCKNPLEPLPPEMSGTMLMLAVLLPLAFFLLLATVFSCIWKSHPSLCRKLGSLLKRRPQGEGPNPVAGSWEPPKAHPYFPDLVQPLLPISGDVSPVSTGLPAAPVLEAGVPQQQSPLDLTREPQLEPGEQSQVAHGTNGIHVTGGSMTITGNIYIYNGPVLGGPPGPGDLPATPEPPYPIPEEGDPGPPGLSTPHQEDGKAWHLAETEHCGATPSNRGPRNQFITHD
T3 sequence (P36941 28-227 limits assumed): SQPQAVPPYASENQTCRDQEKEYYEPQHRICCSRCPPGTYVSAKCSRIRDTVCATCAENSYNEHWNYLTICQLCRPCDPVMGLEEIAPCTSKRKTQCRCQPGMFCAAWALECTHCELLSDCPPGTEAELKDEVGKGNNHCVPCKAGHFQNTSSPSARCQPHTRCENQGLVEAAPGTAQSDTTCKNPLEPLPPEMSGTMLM

B1: T3.07 (anti-hu FAP-hu scLIGHT2/anti-hu FAP-hu LIGHT, hu IgG1 DANG (2 + 1)) (bispecific antibody)
heavy 1: QVQLVQSGAEVKKPGASVKVSCKTSRYTFTEYTIHWVRQAPGQRLEWIGGINPNNGIPNYNQKFKGRVTITVDTSASTAYMELSSLRSEDTAVYYCARRRIAYGYDEGHAMDYWGQGTLVTVSSASTKGPSVFPLAPSSKSTSGGTAALGCLVKDYFPEPVTVSWNSGALTSGVHTFPAVLQSSGLYSLSSVVTVPSSSLGTQTYICNVNHKPSNTKVDKKVEPKSCDKTHTCPPCPAPELLGGPSVFLFPPKPKDTLMISRTPEVTCVVVAVSHEDPEVKFNWYVDGVEVHNAKTKPREEQYGSTYRVVSVLTVLHQDWLNGKEYKCKVSNKALPAPIEKTISKAKGQPREPQVYTLPPSRDELTKNQVSLWCLVKGFYPSDIAVEWESNGQPENNYKTTPPVLDSDGSFFLYSKLTVDKSRWQQGNVFSCSVMHEALHNHYTQKSLSLSPGKGGGGSGGGGSEVNPAAHLTGANSSLTGSGGPLLWETQLGLAFLRGLSYHDGALVVTKAGYYYIYSKVQLGGVGCPLGLASTITHGLYKRTPRYPEELELLVSQQSPCGRATSSSRVWWDSSFLGGVVHLEAGEKVVVRVLDERLVRLRDGTRSYFGAFMVGGSGEVNPAAHLTGANSSLTGSGGPLLWETQLGLAFLRGLSYHDGALVVTKAGYYYIYSKVQLGGVGCPLGLASTITHGLYKRTPRYPEELELLVSQQSPCGRATSSSRVWWDSSFLGGVVHLEAGEKVVVRVLDERLVRLRDGTRSYFGAFMV
heavy 2: not shown
light: not shown
notes: Knob-into-hole; two anti-FAP arms, LIGHT dimer and LIGHT monomer at the C-termini of the two heavy chains; two copies of the light chain follow from the (2 + 1) format
What is called Kd is the constant that tells how readily two partners part at equilibrium. By koff is commonly meant the rate constant with which the complex falls apart. One may read the kon as the rate constant with which the complex forms. For B1, the “IL-8 secretion of A375 cells, EC50 (FIG. 15b)” value in the test with human LTβR on A375 cells [1] is 0.0477 nM. In addition, the “percent of cells bound” value with human LTβR on A375 cells [2] is ≥ 96%. Besides, the Kd is 0.303 nM with recombinant human FAP, 0.935 nM in test [3], 3.99 nM in test [4] and 0.598 nM with human DcR3. The koff was 0.000118 s⁻¹ with recombinant human FAP, 0.000382 s⁻¹ in test [3], 0.00114 s⁻¹ in test [4] and 0.000195 s⁻¹ in the test with human DcR3. Besides, the kon is 391000 M⁻¹ s⁻¹ in the test with recombinant human FAP, 409000 M⁻¹ s⁻¹ in test [3], 285000 M⁻¹ s⁻¹ in test [4] and 327000 M⁻¹ s⁻¹ in the test with human DcR3.

B2: T3.04 (anti-hu FAP/hu scLIGHT3(GGGGS4), hu IgG1 DANG) (bispecific antibody)
heavy: QVQLVQSGAEVKKPGASVKVSCKTSRYTFTEYTIHWVRQAPGQRLEWIGGINPNNGIPNYNQKFKGRVTITVDTSASTAYMELSSLRSEDTAVYYCARRRIAYGYDEGHAMDYWGQGTLVTVSSASTKGPSVFPLAPSSKSTSGGTAALGCLVKDYFPEPVTVSWNSGALTSGVHTFPAVLQSSGLYSLSSVVTVPSSSLGTQTYICNVNHKPSNTKVDKKVEPKSCDKTHTCPPCPAPELLGGPSVFLFPPKPKDTLMISRTPEVTCVVVAVSHEDPEVKFNWYVDGVEVHNAKTKPREEQYGSTYRVVSVLTVLHQDWLNGKEYKCKVSNKALPAPIEKTISKAKGQPREPQVYTLPPSRDELTKNQVSLWCLVKGFYPSDIAVEWESNGQPENNYKTTPPVLDSDGSFFLYSKLTVDKSRWQQGNVFSCSVMHEALHNHYTQKSLSLSPGK
light: not shown
chain: not shown
notes: Knob-into-hole; LIGHT homotrimer with (GGGGS)4 linkers
What is called EC50 (read off the curve) is the concentration that produces a half-maximal response. A high value points to a less potent agent. For B2, the “IL-8 secretion of A375 cells, EC50 (FIG. 15a)” value with human LTβR on A375 cells [1] turned out to be 0.0604 nM. Further, the “percent of cells bound” value with human LTβR on A375 cells [2] was ≥ 96%. Also, in the test with human LTβR on A375 cells [5], the 50% effective concentration (EC50 (read off the curve)) was ~4 nM. The binding result in test [6] is recorded as “binds”.

These data come from US20250368754A1 (KANAPH THERAPEUTICS, published 2025).
